Substrate in the data set: O=CC(O)COP(=O)(O)O
The experiment in a line: purified protein. The data set is classed as biochemical, Arabidopsis thaliana. To be noted: G3P to DHAP direction, 0-4.0 mM G3P (DL-G3P supplied), TEA pH 7.4, 10 mM EDTA, 0.01% BSA, 0.2 mM NADH, apparent constant.

B1: cTPI (Arabidopsis thaliana) (protein)
chain: MARKFFVGGNWKCNGTAEEVKKIVNTLNEAQVPSQDVVEVVVSPPYVFLPLVKSTLRSDFFVAAQNCWVKKGGAFTGEVSAEMLVNLDIPWVILGHSERRAILNESSEFVGDKVAYALAQGLKVIACVGETLEEREAGSTMDVVAAQTKAIADRVTNWSNVVIAYEPVWAIGTGKVASPAQAQEVHDELRKWLAKNVSADVAATTRIIYGGSVNGGNCKELGGQADVDGFLVGGASLKPEFIDIIKAAEVKKSA
notes: homodimer
In general, Km refers to the substrate concentration at which the rate is half of its maximum. As a reminder, the kcat is the maximal rate divided by the concentration of active sites. By kcat/Km is commonly meant the turnover number divided by the Michaelis constant. Regarding B1, the Km was found to be 480 ± 50 µM, the kcat worked out at 2560 ± 43.9 s⁻¹ and the specificity constant (kcat/Km) was determined as 5.34e+06 M⁻¹ s⁻¹.

B2: pdTPI (Arabidopsis thaliana) (protein)
chain: MAGSGKFFVGGNWKCNGTKDSIAKLISDLNSATLEADVDVVVSPPFVYIDQVKSSLTDRIDISGQNSWVGKGGAFTGEISVEQLKDLGCKWVILGHSERRHVIGEKDEFIGKKAAYALSEGLGVIACIGEKLEEREAGKTFDVCFAQLKAFADAVPSWDNIVVAYEPVWAIGTGKVASPQQAQEVHVAVRGWLKKNVSEEVASKTRIIYGGSVNGGNSAELAKEEDIDGFLVGGASLKGPEFATIVNSVTSKKVAA
notes: homodimer
As to B2, the Michaelis-Menten constant (Km) was 400 ± 20 µM, the turnover number (kcat) came to 2340 ± 41.6 s⁻¹ and the kcat/Km was 5.84e+06 M⁻¹ s⁻¹.
